The source of these data is patent publication US20230192903A1 (published 2023).

One assay has as its target T1, Human CLDN18.1 (human, UniProt P56856 1-261).
T1 construct: also called hCLDN18.1
The assay can be described thus: flow cytometry, 293T-hCLDN18.1 cells.

The target of another assay is T2, human CD3 antigen (human, UniProt P07766 23-126).
T2 construct: also called Human CD3ϵ
The assay can be described thus: SPR (Biacore T200), human CD3 antigen on CM5 chip.

Assay [1] deals with Human CLDN18.2 (human). The assay can be described thus: cell-based or functional assay.
The target of assay [2] is T3, Human CLDN18.2 (human).
T3 construct: the cell line is named under assay; also called hCLDN18.2; human CLDN18.2 antigen
The assay can be described thus: flow cytometry, NUGC4-hCLDN18.2 cells.
Description: NUGC4 and NUGC4-hCLDN18.2 cells were cultured, digested with pancreatin and centrifuged to collect cells. The cells were collected and resuspended in buffer (PBS+1% FBS) at 1×10⁴ cells/well in a 96-well plate at 100 μL per well. Then the mixture was centrifuged at 350×g for 5 min, and the supernatant was removed.

Assay [3] concerns the target T3, Human CLDN18.2. The assay can be described thus: flow cytometry, NUGC4 cells (endogenous CLDN18.2).

Description for human CD3 antigen: After the detection was completed, data fitting was carried out on the result pattern by adopting Biacore T200 Evaluation Software in a 1:1 binding fitting mode to obtain an equilibrium dissociation constant (KD).

B1: bispecific antibody CS6 (bispecific antibody, human IgG1, kappa)
light: DIVMTQSPSSLTVTAGEKVTMSCKSSQSLLNSGNQKNYLTWYQQKPGQPPKLLIYWASTRESGVPDRFTGSGSGTDFTLTISSVQAEDLAVYYCQNDYSYPFTFGSGTKLEIKRTVAAPSVFIFPPSDEQLKSGTASVVCLLNNFYPREAKVQWKVDNALQSGNSQESVTEQDSKDSTYSLSSTLTLSKADYEKHKVYACEVTHQGLSSPVTKSFNRGEC
heavy 1: QVQLQQPGAELVRPGASVKLSCKASGYTFTSYWINWVKQRPGQGLEWIGNIYPSDSYTNYNQKFKDKATLTVDKSSSTAYMQLSSPTSEDSAVYYCTRSWRGNSFDYWGQGTTLTVSSASTKGPSVFPLAPSSKSTSGGTAALGCLVKDYFPEPVTVSWNSGALTSGVHTFPAVLQSSGLYSLSSVVTVPSSSLGTQTYICNVNHKPSNTKVDKKVEPKSCDKTHTCPPCPAPPVAGPSVFLFPPKPKDTLMISRTPEVTCVVVDVSHEAPEVQFNWYVDGVEVHNAKTKPREEQFNSTFRVVSVLTVVHQDWLNGKEYKCKVSNKGLPAPIEKTISKTKGQPREPQVYTLPPCRDELTKNQVSLWCLVKGFYPSDIAVEWESNGQPENNYKTTPPVLDSDGSFFLYSKLTVDKSRWQQGNVFSCSVMHEALHNHYTQKSLSLSPGK
heavy 2: QVQLQQPGAELVRPGASVKLSCKASGYTFTSYWINWVKQRPGQGLEWIGNIYPSDSYTNYNQKFKDKATLTVDKSSSTAYMQLSSPTSEDSAVYYCTRSWRGNSFDYWGQGTTLTVSSASTKGPSVFPLAPSSKSTSGGTAALGCLVKDYFPEPVTVSWNSGALTSGVHTFPAVLQSSGLYSLSSVVTVPSSSLGTQTYICNVNHKPSNTKVDKKVEPKSCDKTHTAPAPAPAPAPAPAPAPQVQLVESGGGVVQPGRSLRLSCAASGFTFSTYAMNWVRQAPGKGLEWVGRIRSKYNNYATYYADSVKDRFTISRDDSKNTLYLQMNSLRGEDTAVYYCARHGNFGNSYVSWFAYWGQGTLVTVSSGGGGSGGGGSGGGGSQTVVTQEPSLTVSPGGTVTLTCRSSTGAVTTSNYANWVQQKPGQAPRGLIGGTNKRAPGVPARFSGSLLGGKAALTLSGVQPEDEAEYTCALWYSNLWVFGGGTKVEIKGGGGSDKTHTCPPCPAPPVAGPSVFLFPPKPKDTLMISRTPEVTCVVVDVSHEAPEVQFNWYVDGVEVHNAKTKPREEQFNSTFRVVSVLTVVHQDWLNGKEYKCKVSNKGLPAPIEKTISKTKGQPREPQVCTLPPSRDELTKNQVSLSCAVKGFYPSDIAVEWESNGQPENNYKTTPPVLDSDGSFFLVSKLTVDKSRWQQGNVFSCSVMHEALHNHYTQKSLSLSPGK
notes: CSBODY structure: two 175D10 Fab arms; second heavy chain (first heavy entry) and first heavy chain with anti-CD3 scFv (Di6-2) between CH1 and Fc2
On to B1, for which the binding result with Human CLDN18.1 is recorded as “no binding”. The dissociation constant (Kd) with human CD3 antigen was below 15 nM. For the same molecule, in the assay with Human CLDN18.2 [1], the “EC50 value for killing effect on NUGC4-hCLDN18.2 cells” value (“EC50 value … on NUGC4-hCLDN18.2 cells” for short) is below 0.01 nM. The same molecule yielded an EC50 in the assay with Human CLDN18.2 [2] below 50 nM.

B2: bispecific antibody CS7 (bispecific antibody, human IgG1, kappa)
light: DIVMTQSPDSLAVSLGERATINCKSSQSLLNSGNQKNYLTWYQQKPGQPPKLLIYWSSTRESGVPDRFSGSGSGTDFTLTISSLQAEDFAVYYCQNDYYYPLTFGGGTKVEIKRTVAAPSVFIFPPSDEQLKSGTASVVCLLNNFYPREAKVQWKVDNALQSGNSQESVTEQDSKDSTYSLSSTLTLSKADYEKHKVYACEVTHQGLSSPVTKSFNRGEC
heavy 1: EVQLVESGGGLVKPGGSLRLSCAASGFSFSNSAMSWVRQAPGKGLEWVSTISSGDSYTYYADSVKGRFTISRDNAKNSLYLQMNSLRAEDTAVYYCARQGYGNALDYWGQGTLVTVSSASTKGPSVFPLAPSSKSTSGGTAALGCLVKDYFPEPVTVSWNSGALTSGVHTFPAVLQSSGLYSLSSVVTVPSSSLGTQTYICNVNHKPSNTKVDKKVEPKSCDKTHTCPPCPAPPVAGPSVFLFPPKPKDTLMISRTPEVTCVVVDVSHEAPEVQFNWYVDGVEVHNAKTKPREEQFNSTFRVVSVLTVVHQDWLNGKEYKCKVSNKGLPAPIEKTISKTKGQPREPQVYTLPPCRDELTKNQVSLWCLVKGFYPSDIAVEWESNGQPENNYKTTPPVLDSDGSFFLYSKLTVDKSRWQQGNVFSCSVMHEALHNHYTQKSLSLSPGK
heavy 2: EVQLVESGGGLVKPGGSLRLSCAASGFSFSNSAMSWVRQAPGKGLEWVSTISSGDSYTYYADSVKGRFTISRDNAKNSLYLQMNSLRAEDTAVYYCARQGYGNALDYWGQGTLVTVSSASTKGPSVFPLAPSSKSTSGGTAALGCLVKDYFPEPVTVSWNSGALTSGVHTFPAVLQSSGLYSLSSVVTVPSSSLGTQTYICNVNHKPSNTKVDKKVEPKSCDKTHTAPAPAPAPAPAPAPAPQVQLVESGGGVVQPGRSLRLSCAASGFTFSTYAMNWVRQAPGKGLEWVGRIRSKYNNYATYYADSVKDRFTISRDDSKNTLYLQMNSLRGEDTAVYYCARHGNFGNSYVSWFAYWGQGTLVTVSSGGGGSGGGGSGGGGSQTVVTQEPSLTVSPGGTVTLTCRSSTGAVTTSNYANWVQQKPGQAPRGLIGGTNKRAPGVPARFSGSLLGGKAALTLSGVQPEDEAEYTCALWYSNLWVFGGGTKVEIKGGGGSDKTHTCPPCPAPPVAGPSVFLFPPKPKDTLMISRTPEVTCVVVDVSHEAPEVQFNWYVDGVEVHNAKTKPREEQFNSTFRVVSVLTVVHQDWLNGKEYKCKVSNKGLPAPIEKTISKTKGQPREPQVCTLPPSRDELTKNQVSLSCAVKGFYPSDIAVEWESNGQPENNYKTTPPVLDSDGSFFLVSKLTVDKSRWQQGNVFSCSVMHEALHNHYTQKSLSLSPGK
notes: CSBODY structure: two 1E9.2 Fab arms; second heavy chain (first heavy entry) and first heavy chain with anti-CD3 scFv (Di6-2) between CH1 and Fc2
Regarding B2, the binding result with Human CLDN18.1 is listed as “no binding”. Also, in the assay with human CD3 antigen, the dissociation constant Kd was below 15 nM. In the assay with Human CLDN18.2 [1], the “EC50 value … on NUGC4-hCLDN18.2 cells” value was below 0.01 nM and the “EC50 value for killing effect on NUGC4 cells” value (from here on “EC50 value … on NUGC4 cells”) is below 0.01 nM. The molecule further showed an EC50 in the assay with Human CLDN18.2 [3] below 100 nM. The molecule further returned an EC50 in the assay with Human CLDN18.2 [2] below 50 nM.

B3: bispecific antibody CS10 (bispecific antibody, human IgG1, kappa)
light: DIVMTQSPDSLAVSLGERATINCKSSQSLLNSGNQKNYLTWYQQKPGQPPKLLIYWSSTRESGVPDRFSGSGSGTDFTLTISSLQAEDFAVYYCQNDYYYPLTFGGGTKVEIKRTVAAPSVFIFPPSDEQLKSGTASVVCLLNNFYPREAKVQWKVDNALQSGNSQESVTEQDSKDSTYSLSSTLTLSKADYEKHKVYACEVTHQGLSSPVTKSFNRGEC
heavy 1: B2 heavy 1
heavy 2: not shown
notes: CSBODY structure: two 1E9.2 Fab arms; second heavy chain (first heavy entry) and first heavy chain with anti-CD3 scFv (L2K) between CH1 and Fc2
Consider B3, for which the binding result in the assay with Human CLDN18.1 was “no binding”. Moreover, the “EC50 value … on NUGC4-hCLDN18.2 cells” value with Human CLDN18.2 [1] is below 0.01 nM. Further, the “EC50 value … on NUGC4 cells” value in the assay with Human CLDN18.2 [1] is below 0.01 nM. Besides, the results for the half-maximal effective concentration (EC50) with Human CLDN18.2 [3] and with Human CLDN18.2 [2] were below 100 nM and below 50 nM, respectively.

B4: bispecific antibody Y18 (bispecific antibody, human IgG1, kappa)
light: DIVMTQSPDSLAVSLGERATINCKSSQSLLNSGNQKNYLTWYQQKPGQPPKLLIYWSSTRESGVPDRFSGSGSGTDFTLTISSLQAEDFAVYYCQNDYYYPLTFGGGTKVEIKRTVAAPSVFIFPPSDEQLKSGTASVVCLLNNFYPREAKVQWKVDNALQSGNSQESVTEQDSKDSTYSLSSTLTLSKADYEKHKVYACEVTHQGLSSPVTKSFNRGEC
heavy: B2 heavy 1
chain: not shown
notes: YBODY structure: anti-CLDN18.2 Fab arm (1E9.2) and second monomer anti-CD3 scFv (L2K)-Fc
Take B4: in the assay with Human CLDN18.1, the binding result was “no binding”. In the assay with Human CLDN18.2 [1], the “EC50 value … on NUGC4-hCLDN18.2 cells” value is below 0.01 nM and the “EC50 value … on NUGC4 cells” value is below 0.01 nM. This molecule also showed an EC50 with Human CLDN18.2 [3] below 100 nM. In addition, the concentration giving a half-maximal response (EC50) in the assay with Human CLDN18.2 [2] was below 50 nM.

B5: bispecific antibody CS8 (bispecific antibody, human IgG1, kappa)
light: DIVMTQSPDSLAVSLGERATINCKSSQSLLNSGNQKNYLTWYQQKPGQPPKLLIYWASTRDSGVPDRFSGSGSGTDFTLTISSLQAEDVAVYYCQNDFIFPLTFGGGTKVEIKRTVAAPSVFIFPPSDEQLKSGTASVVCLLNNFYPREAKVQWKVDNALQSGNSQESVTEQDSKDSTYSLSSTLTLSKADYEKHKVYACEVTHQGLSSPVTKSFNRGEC
heavy 1: QVQLQESGPGLVKPSETLSLTCTVSGFSLTRYGVSWIRQPPGKGLEWIGVIWGEGNTNYNPSLKSRVTISKDSSKSQVSLKLSSVTAADTAVYYCARVNFGNALDYWGQGTLVTVSSASTKGPSVFPLAPSSKSTSGGTAALGCLVKDYFPEPVTVSWNSGALTSGVHTFPAVLQSSGLYSLSSVVTVPSSSLGTQTYICNVNHKPSNTKVDKKVEPKSCDKTHTCPPCPAPPVAGPSVFLFPPKPKDTLMISRTPEVTCVVVDVSHEAPEVQFNWYVDGVEVHNAKTKPREEQFNSTFRVVSVLTVVHQDWLNGKEYKCKVSNKGLPAPIEKTISKTKGQPREPQVYTLPPCRDELTKNQVSLWCLVKGFYPSDIAVEWESNGQPENNYKTTPPVLDSDGSFFLYSKLTVDKSRWQQGNVFSCSVMHEALHNHYTQKSLSLSPGK
heavy 2: QVQLQESGPGLVKPSETLSLTCTVSGFSLTRYGVSWIRQPPGKGLEWIGVIWGEGNTNYNPSLKSRVTISKDSSKSQVSLKLSSVTAADTAVYYCARVNFGNALDYWGQGTLVTVSSASTKGPSVFPLAPSSKSTSGGTAALGCLVKDYFPEPVTVSWNSGALTSGVHTFPAVLQSSGLYSLSSVVTVPSSSLGTQTYICNVNHKPSNTKVDKKVEPKSCDKTHTAPAPAPAPAPAPAPAPQVQLVESGGGVVQPGRSLRLSCAASGFTFSTYAMNWVRQAPGKGLEWVGRIRSKYNNYATYYADSVKDRFTISRDDSKNTLYLQMNSLRGEDTAVYYCARHGNFGNSYVSWFAYWGQGTLVTVSSGGGGSGGGGSGGGGSQTVVTQEPSLTVSPGGTVTLTCRSSTGAVTTSNYANWVQQKPGQAPRGLIGGTNKRAPGVPARFSGSLLGGKAALTLSGVQPEDEAEYTCALWYSNLWVFGGGTKVEIKGGGGSDKTHTCPPCPAPPVAGPSVFLFPPKPKDTLMISRTPEVTCVVVDVSHEAPEVQFNWYVDGVEVHNAKTKPREEQFNSTFRVVSVLTVVHQDWLNGKEYKCKVSNKGLPAPIEKTISKTKGQPREPQVCTLPPSRDELTKNQVSLSCAVKGFYPSDIAVEWESNGQPENNYKTTPPVLDSDGSFFLVSKLTVDKSRWQQGNVFSCSVMHEALHNHYTQKSLSLSPGK
notes: CSBODY structure: two 2C6.9 Fab arms; second heavy chain (first heavy entry) and first heavy chain with anti-CD3 scFv (Di6-2) between CH1 and Fc2
On to B5, for which, in the assay with Human CLDN18.1, the binding result is listed as “no binding”. The molecule also came in with a Kd with human CD3 antigen below 15 nM. In addition, in the assay with Human CLDN18.2 [1], the “EC50 value … on NUGC4-hCLDN18.2 cells” value was below 0.01 nM and the “EC50 value … on NUGC4 cells” value was below 0.01 nM. This molecule had an EC50 in the assay with Human CLDN18.2 [3] below 100 nM. Also, in the assay with Human CLDN18.2 [2], the concentration for a half-maximal effect (EC50) is below 50 nM.

B6: bispecific antibody CS11 (bispecific antibody, human IgG1, kappa)
light: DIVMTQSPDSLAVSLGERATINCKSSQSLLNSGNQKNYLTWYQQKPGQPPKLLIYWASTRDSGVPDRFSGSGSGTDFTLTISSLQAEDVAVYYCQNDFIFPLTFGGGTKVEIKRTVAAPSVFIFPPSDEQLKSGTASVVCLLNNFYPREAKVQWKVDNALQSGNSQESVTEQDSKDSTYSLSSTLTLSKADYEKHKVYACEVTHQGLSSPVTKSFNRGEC
heavy 1: B5 heavy 1
heavy 2: not shown
notes: CSBODY structure: two 2C6.9 Fab arms; second heavy chain (first heavy entry) and first heavy chain with anti-CD3 scFv (L2K) between CH1 and Fc2
For B6, the binding result with Human CLDN18.1 was “no binding”. In the assay with Human CLDN18.2 [1], the “EC50 value … on NUGC4-hCLDN18.2 cells” value is below 0.01 nM and the “EC50 value … on NUGC4 cells” value is below 0.01 nM. Moreover, in the assay with Human CLDN18.2 [3], the EC50 is below 100 nM. Besides, in the assay with Human CLDN18.2 [2], the concentration for a half-maximal effect (EC50) was below 50 nM.
